Data from US20230084102A1 (HUMABS BIOMED, published 2023).
Where a chain is given by its changes, count along the chain named. Read-outs that look alike come from different tables or passages of the source. Where no end group is shown, it is not given here. The star is where a group is joined. Biotin = O=C1N[C@H]2[C@H](CS[C@H]2CCCCC(=O)*)N1

T1: biotinylated NANP-peptide (Plasmodium falciparum)
T1 construct: also called NANP-repeat region of CSP
T1 peptide: Biotin-NANPNANPNANPNANPNA

T2: biotinylated NPDP-peptide (Plasmodium falciparum, also: biotinylated)
T2 peptide: KQPADGNPDPNANPN

T3: biotinylated NPDP19-peptide (Plasmodium falciparum)
T3 peptide: Biotin-KQPADGNPDPNANPNVDPN

B1: MGU10 (antibody, V domains shown)
VH: QVQLVESGGGVVQPGRSLRLSCAASGFAFSNYGMNWVRQAPGKGLEWVAVIWHDGSLKYYTQSVKGRFTISRDNAKNTLFLQMDSLSADDTAMYYCTVWYLETPDDGFDIWGRGTMVTVSS
VL: QLVLTQPPSASASLGVSVTLTCTLSHGHTSKAIAWHQQQPGKGPRYLMKVNSDGSHTKGAAVPDRFSGSTSGAERHFTISNLQSDDEADYYCQAWDSGIWVFGGGTKLTVL
notes: also called parental antibody MGU10
B2: MGU10variant1 (antibody, V domains shown)
VH: B1 VH with N35H, R113Q
VL: B1 VL
notes: Expressed as IgG1 in Expi293F cells and tested as quantified culture supernatant; also called MGU10v1
B3: MGU10variant2 (antibody, V domains shown)
VH: B1 VH with D106E
VL: B1 VL
notes: Expressed as IgG1; also called MGU10v2
B4: MGU10variant3 (antibody, V domains shown)
VH: B1 VH
VL: B1 VL with D96E
notes: Expressed as IgG1; also called MGU10v3
B5: MGU10variant8 (antibody, V domains shown)
VH: B1 VH with D89E, D106E
VL: B1 VL
notes: also called MGU10v8
B6: MGH2 (antibody, V domains shown)
VH: QVQLVESGGGVVQPGGSLRLSCTASGFSFSSYAMHWVRQAPGKGLEWVAYTRYDGSNKFYLDSVQGRFTISRDNSKNTLYLEMDSLRLEDTAVYFCAKVGDGTVAGTIDYWGQGTLVTVSS
VL: YIVMTQSPLSLPVTLGQPASISCRSSQSLVYSDGNTYLNWYQQRPGQSPRRLIYKVSNRDSGVPDRFSGSGSGTDFTLKISRVEAEDVGVYYCMQGTHWWTFGQGTKVEIK
notes: also called parental antibody MGH2
B7: MGH2variant1 (antibody, V domains shown)
VH: B6 VH
VL: B6 VL with W99F
notes: Expressed as IgG1; also called MGH2v1

Assays:
[1] = target: T1, biotinylated NANP-peptide; assay: ELISA, biotinylated peptide on avidin-coated plates, titrated IgG
Experimental: (§1) To test specific antibody binding to (i) the NANP-repeat region of CSP and (ii) the N-terminal region of CSP covering the junction between the N-terminal domain and the NANP-repeats, ELISA plates were coated with 10 μg/ml of avidin (Sigma). […] The plates were washed and incubated with titrated monoclonal antibodies, followed by 1/500 AP-conjugated goat anti-human IgG (Southern Biotech) and pNPP substrate. EC50 (ng/ml) values were calculated for every sample tested by nonlinear regression analysis using the Graph Pad Prism 7 software.

[2] = target: T2, biotinylated NPDP-peptide; assay: as above
Experimental: as §1

[3] = target: T3, biotinylated NPDP19-peptide; assay: ELISA, biotinylated peptide on streptavidin-coated plates
[4] = target: T1, biotinylated NANP-peptide; assay: as above
[5] = target: T1, biotinylated NANP-peptide; assay: ELISA, biotinylated peptide on avidin-coated plates, titrated IgG
Experimental: as §1

[6] = target: T2, biotinylated NPDP-peptide; assay: as above
Experimental: as §1

Binder | EC50 [1] [µg/mL] | EC50 [2] [µg/mL] | binding result [3] | binding result [4] | EC50 [5] [µg/mL] | EC50 [6] [µg/mL]
B1 | 0.0343 | 0.0261 |  |  |  | 
B2 | 0.0285 | 0.0225 |  |  |  | 
B3 | 0.0268 | 0.0204 | binds |  |  | 
B4 | 0.0263 | 0.0251 |  |  |  | 
B5 |  |  | binds | binds |  | 
B6 |  |  |  |  | 0.0279 | 0.0488
B7 |  |  |  |  | 0.0223 | 0.0658
